Assay results from US20070059799A1.
No end group written: not given here.

Each binder was assayed against HLA-A*0201 (human) (assay: not given). Conditions: not given.

Row | Binder | binding affinity ratio (IC50 of standard peptide / IC50 of test peptide)
1 | DLNLGNLNV (modifications not checked) [HBV POL 40 9-mer …] | 0.0004
2 | FIIFLFIL (modifications not checked) [HBV ENV 243 8-mer FIIFLFIL] | 0.0006
3 | FLFILLLCL (modifications not checked) [HBV ENV 246 9-mer …] | 0.0002
4 | LIFLLVLL (modifications not checked) [HBV ENV 254 LIFLLVLL] | 0.0025
5 | LLDYQGML (modifications not checked) [HBV ENV 260 LLDYQGML] | 0.0004
6 | LLGCAANWI (modifications not checked) [HBV POL 752 …] | 0.0011
7 | LLTRILTI (modifications not checked) [HBV ENV 184 LLTRILTI] | 0.0026
8 | LVSFGVWI (modifications not checked) [HBV NUC 119 peptide LVSFGVWI] | 0.0004
9 | NLGNLNVSI (modifications not checked) [HBV POL 42 peptide …] | 0.0047
10 | NLLSSNLSWL (modifications not checked) [HBV POL 406 peptide …] | 0.0016

These binders were tested against HLA-A*0301 (human) (assay: competition with 125I-labelled standard peptide on purified HLA, gel filtration). Conditions: not given.

Row | Binder | binding affinity ratio (IC50 of standard peptide / IC50 of test peptide)
11 | TSAICSVVRR (modifications not checked) [HBV POL 519 10-mer peptide … (SEQ ID NO: 668)] | 0.0018

These binders were tested against HLA-A*0301 (human) (assay: not given). Conditions: not given.

Row | Binder | binding affinity ratio (IC50 of standard peptide / IC50 of test peptide)
12 | CLIFLLVLLDY (modifications not checked) [HBV ENV 253 …] | 0.0083
13 | GLLGFAAPF (modifications not checked) [HBV POL 627 peptide …] | 0.0006
14 | LSTLPETTVVR (modifications not checked) [HBV NUC 169 …] | -0.0009
15 | LSWLSLDVSA (modifications not checked) [HBV POL 412 …] | 0.0048
16 | RAFPHCLAF (modifications not checked) [HBV POL 528 peptide …] | 0.0015
17 | RSPRRRTPSPR (modifications not checked) [HBV NUC 163 peptide …] | -0.0007
18 | SVVLSRKY (modifications not checked) [HBV POL 739 SVVLSRKY] | -0.0002
19 | TSAICSVVRR (modifications not checked) [HBV POL 519 …] | 0.0018
20 | VVRRRGRSPR (modifications not checked) [HBV NUC 177 peptide […] (as printed)] | 0.0027
21 | WLSLDVSAAFY (not fully specified) [[…] (HBV POL 414)] | 0.0034
22 | YLPLDKGIKPY (modifications not checked) [… (HBV POL 122)] | -0.0004

These binders were tested against HLA-A*3101 (human) (assay: competition with 125I-labelled probe peptide for purified HLA, gel filtration). Conditions: not given.

Row | Binder | IC50 | binding affinity ratio (IC50 of standard peptide / IC50 of test peptide)
23 | GVWIRTPPAYR (modifications not checked) [peptide 26.0535 (HBV X NUC FUS 299, …)] | 3 nM | 
24 | RLVVDFSQFSR (modifications not checked) [peptide 26.0539 (HBV POL 376, …)] | 7 nM | 
25 | GIHLNPNKTK (modifications not checked) [HBV POL 567 peptide …] |  | 0.0009

Same assay, conditions: remark: other sources report otherwise

Row | Binder | IC50
26 | KVFVLGGCR (modifications not checked) [peptide 1.0993 (HBV X 130, …)] | 30 nM
27 | SSAGPCALR (modifications not checked) [peptide 26.0153 (HBV X 64, …)] | 55 nM
28 | AFTFSPTYK (modifications not checked) [peptide 20.0130 (HBV pol 655, …)] | 3100 nM
29 | FVLGGCRHK (modifications not checked) [peptide 1.0219 (HBV X 1550, …)] | 1500 nM

Each binder was assayed against HLA-A*3301 (human) in the same assay as above. Conditions: not given.

Row | Binder | binding affinity ratio (IC50 of standard peptide / IC50 of test peptide)
30 | GIHLNPNKTK (modifications not checked) [HBV POL 567 peptide …] | 0.0009

What follows are binders tested against HLA-A*0301 (human) in the same assay as above. Conditions: not given.

Row | Binder | binding affinity ratio (IC50 of standard peptide / IC50 of test peptide)
31 | HLNPNKTKR (modifications not checked) [HBV POL 569 peptide …] | 0.0025
32 | LLDTASALYR (modifications not checked) [HBV NUC 30 peptide …] | 0.005

What follows are binders tested against HLA-A*03 (human) in the same assay as above. Conditions: not given.

Row | Binder | IC50
33 | GVWIRTPPAYR (modifications not checked) [peptide 26.0535 (HBV X NUC FUS 299, …)] | 58 nM
34 | HTLWKAGILYK (modifications not checked) [peptide 1147.16 (HBV pol 149, …)] | 20 nM
35 | RLVVDFSQFSR (modifications not checked) [peptide 26.0539 (HBV POL 376, …)] | 39 nM

Same assay, conditions: remark: other sources report otherwise

Row | Binder | IC50
36 | AFTFSPTYK (modifications not checked) [peptide 20.0130 (HBV pol 655, …)] | 42 nM
37 | SVVRRAFPH (modifications not checked) [peptide 20.0131 (HBV pol 524, …)] | 100 nM
38 | VSFGVWIR (modifications not checked) [peptide 26.0023 (HBV X NUC FUS 296, VSFGVWIR)] | 2750 nM

The binders below were run against HLA-A*1101 (human) (assay: inhibition of 125I-labelled standard peptide binding to purified HLA). Conditions: not given.

Row | Binder | binding affinity ratio (IC50 of standard peptide / IC50 of test peptide)
39 | PLTVNEKRR (modifications not checked) [HBV POL 98 peptide …] | 0.0005

Each binder was assayed against HLA-A*3101 (human) in the same assay as above. Conditions: not given.

Row | Binder | binding affinity ratio (IC50 of standard peptide / IC50 of test peptide)
40 | PARDVLCLR (modifications not checked) [HBV X 11 peptide …] | 0.01
41 | PLSYQHFR (modifications not checked) [HBV POL 2 peptide PLSYQHFR] | -0.0009

Each binder was assayed against HLA-A*3301 (human) in the same assay as above. Conditions: not given.

Row | Binder | binding affinity ratio (IC50 of standard peptide / IC50 of test peptide)
42 | PARDVLCLR (modifications not checked) [HBV X 11 peptide …] | 0.018
43 | PLSYQHFR (modifications not checked) [HBV POL 2 peptide PLSYQHFR] | -0.0009
44 | PLTVNEKRR (modifications not checked) [HBV POL 98 peptide …] | 0.0027

Target: HLA-A*0301 (human)
Test: not given
Conditions: not given
Remark: another data set of the same source

Row | Binder | binding affinity ratio (IC50 of standard peptide / IC50 of test peptide)
45 | LTVNEKRR (modifications not checked) [HBV POL 99 LTVNEKRR] | -0.0002
46 | LVPFVQWF (modifications not checked) [HBV ENV 339 LVPFVQWF] | 0.0028
47 | LVVDFSQF (modifications not checked) [HBV POL 377 LWDFSQF] | 0.0016
48 | NLEDPASR (modifications not checked) [HBV NUC 75 NLEDPASR] | -0.0002
49 | NLNVSIPWTHK (modifications not checked) [HBV POL 45 …] | -0.0009
50 | NSVVLSRK (modifications not checked) [HBV POL 738 NSVVLSRK] | 0.0006
51 | RTPSPRRR (modifications not checked) [HBV NUC 188 RTPSPRRR] | -0.0002
52 | SAGPCALRF (modifications not checked) [HBV X 65 …] | -0.0003
53 | SALNPADDPSR (modifications not checked) [HBV POL 771 …] | -0.0004
54 | SSAGPCALRF (modifications not checked) [HBV X 64 …] | -0.0003

Same assay, conditions: remark: other sources report otherwise

Row | Binder | binding affinity ratio (IC50 of standard peptide / IC50 of test peptide)
55 | SAGPCALR (modifications not checked) [HBV X 65 SAGPCALR] | -0.0002
56 | SAICSVVR (modifications not checked) [HBV POL 520 SAICSVVR] | -0.0002

What follows are binders tested against HLA-A*0201 (human) (assay: competition with 125I-labelled standard peptide for purified HLA, gel filtration). Conditions: not given.

Row | Binder | binding affinity ratio (IC50 of standard peptide / IC50 of test peptide)
57 | AICSVVRRA (modifications not checked) [HBV POL 521 peptide …] | 0.0001
58 | CIPIPSSWA (modifications not checked) [HBV ENV 312 peptide …] | 0.001
59 | CLAFSYMDDV (modifications not checked) [HBV POL 533 peptide …] | 0.0008
60 | CLGWLWGMDI (modifications not checked) [HBV NUC 23 peptide …] | 0.0093
61 | CLIFLLVL (modifications not checked) [HBV ENV 253 peptide CLIFLLVL] | 0.0002
62 | ILLLCLIFL (modifications not checked) [HBV ENV 249 peptide … (9-mer, as printed)] | 0.0015
63 | ILLLCLIFLLV (modifications not checked) [HBV ENV 249 peptide …] | 0.0056
64 | IVGLLGFAA (modifications not checked) [HBV POL 625 peptide …] | 0.0009

Same assay, conditions: remark: other sources report otherwise

Row | Binder | binding affinity ratio (IC50 of standard peptide / IC50 of test peptide)
65 | AMSTTDLEA (modifications not checked) [HBV X 102 peptide …] | 0.0013
